# Reference: article PMC2834734
# Molecular target: myc tagged version of gp96 (UniProt P14625)
# Experiment: pull-down; gp96-myc held on anti-myc agarose beads (Pierce c-Myc Tag IP/Co-IP kit); mixed with 10^8 DRP of purified BAAV or AAV4 vector; 4 °C for 1 h; extensive washes with TBS-T in spin columns; bound vector DNA quantified by qPCR; fold change relative to vector bound to GFP beads; n = 3
# Sequence of UniProt P14625 (P14625 22-803): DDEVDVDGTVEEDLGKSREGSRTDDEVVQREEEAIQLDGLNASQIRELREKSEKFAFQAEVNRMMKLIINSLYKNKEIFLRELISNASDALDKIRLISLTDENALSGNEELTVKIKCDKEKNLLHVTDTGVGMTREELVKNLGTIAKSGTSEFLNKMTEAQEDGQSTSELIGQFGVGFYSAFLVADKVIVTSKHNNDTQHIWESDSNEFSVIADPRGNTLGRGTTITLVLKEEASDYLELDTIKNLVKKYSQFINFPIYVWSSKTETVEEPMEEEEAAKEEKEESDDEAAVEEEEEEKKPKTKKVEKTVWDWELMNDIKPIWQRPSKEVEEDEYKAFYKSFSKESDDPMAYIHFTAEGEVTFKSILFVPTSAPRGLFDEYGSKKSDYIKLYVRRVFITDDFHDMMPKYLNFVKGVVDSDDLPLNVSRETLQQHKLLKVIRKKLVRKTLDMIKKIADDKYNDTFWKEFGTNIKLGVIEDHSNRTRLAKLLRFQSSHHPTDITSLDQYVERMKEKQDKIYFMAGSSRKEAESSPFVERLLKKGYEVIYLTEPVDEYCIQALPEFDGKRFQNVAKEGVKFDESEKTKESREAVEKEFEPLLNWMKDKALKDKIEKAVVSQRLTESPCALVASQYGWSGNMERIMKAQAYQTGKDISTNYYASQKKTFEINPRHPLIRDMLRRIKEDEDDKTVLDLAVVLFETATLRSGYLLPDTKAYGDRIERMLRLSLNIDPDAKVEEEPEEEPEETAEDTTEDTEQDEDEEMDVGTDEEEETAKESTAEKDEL
substance,measurement,value
recombinant bovine adeno-associated virus (BAAV) vector particles containing the CMV-GFP expression cassette (complex),fold increase in bound vector against control GFP or TRPC1 beads,2 to 3 fold
